The results in this text go back to patent publication US20220153839A1 (NBE THERAPEUTICS, published 2022).

Assay [1] has as its target T1, hFc-hROR2 (extracellular domain of human ROR2 fused to the Fc domain of human IgG1) (human, UniProt Q01974 34-403).
T1 construct: extracellular domain; not shown: Fc domain of human IgG1
The assay is described as follows: ELISA as for hFc-hROR1; third bar series, keyed 'hFc-hROR1' a second time on the sheet, taken as hFc-hROR2 by legend paragraph 27. As to the method: (§1) The binding of each chimeric rabbit/human Fab to hROR1 and mROR1 fused with human IgG1 Fc (hFc-hROR1 and hFc-mROR1) was analyzed by ELISA. hFc-ROR1 or hFc-mROR1 were captured by anti-human IgG1 Fc antibody immobilized on plate and then incubated with hROR1 specific Fabs comprising a His-tag via detection with mouse anti-His tag.
(§2) ELISA: For ELISA (FIG. 2), each well of a 96-well Costar 3690 plate (Corning, Corning, N.Y.) was coated with 100 ng anti-human IgG1 Fc in 25 μL coating buffer (0.1 M Na₂CO₃, 0.1 M NaHCO₃, pH 9.6) for 1 h at 37° C. After blocking with 150 μL 3% (w/v) BSA/TBS for 1 h at 37° C., hFc-hROR1 or hFc-mROR1 was captured following incubation at 100 ng/50 μL for 1 h at 37° C. Then 100 ng/50 μL of Fab was applied in each well at 37° C. 2 h later, 50 μL of a 1:1000 dilution of a mouse anti-His tag mAb conjugated to horse radish peroxidase (HRP) (R&D Systems, Minneapolis, Minn.) in 1% (w/v) BSA/TBS was used to detect the Fab. To determine the epitopes (FIG. 4), hFc fusion proteins containing different domains of hROR1 were coated directly, followed by incubation with Fab before detection by mouse anti-His tag mAb conjugated to HRP. Washing with PBS was repeated and colorimetric detection was performed using 2,2′-azino-bis(3-ethylbenzthiazoline)-6-sulfonic acid (Roche) as substrate according to the manufacturer's directions. The absorbance was measured at 405 nm using a SpectraMax M5 microplate reader (Molecular Devices; Sunnyvale, Calif.) and SoftMax Pro software (Molecular Devices).
In general terms: An ELISA detects its analyte on a solid surface through an enzyme-linked reagent.

In assay [2] the target is T2, hFc-mROR1 (extracellular domain of mouse ROR1 fused to the Fc domain of human IgG1) (human; mouse, UniProt Q9Z139 30-406).
T2 construct: extracellular domain; not shown: Fc domain of human IgG1
The assay is described as follows: ELISA; hFc fusion captured by coated anti-human IgG1 Fc; anti-His-HRP; A405. As to the method:
as §1, §2

A further assay has as its target T3, hROR2 (human, UniProt Q01974).
T3 construct: full length, on the cell surface; also called 63-12 / hROR2; ROR2 on T47D cells
The assay is described as follows: flow cytometry on 63-12 / hROR2 cells; anti-His Alexa Fluor 488. As to the method:
Flow cytometry: Cells were stained using standard flow cytometry methodology. Briefly, for purified anti-ROR1 Fab (FIG. 3), 0.1-1×10⁶ cells were stained with 1000 ng/100 μL of Fab on ice for 1 h. After washing twice with ice-cold flow cytometry buffer (PBS containing 1% (v/v) BSA, 0.1% sodium azide and 1 mM EDTA), the cells were incubated with a 1:1000 dilution of a mouse anti-His tag mAb conjugated to Alexa Fluor 488 (Qiagen) in 100 μL flow cytometry buffer on ice for 30 min. For purified anti-ROR1 IgG1 (FIG. 8), 0.1-1×10⁶ cells were blocked by 4% goat serum for 15 min at room temperature and then incubated with 100 ng/100 μL of IgG on ice for 1 h. After washing twice with ice-cold flow cytometry buffer, cells were stained with a 1:500 dilution of goat anti-human IgG, Fcγ pAbs conjugated to APC (Jackson ImmunoResearch) in 100 μL flow cytometry buffer on ice for 30 min. For commercial goat anti human ROR1 polyclonal antibody (FIG. 8), 0.1-1×10⁶ cells were stained with 200 ng/100 μL of Ab on ice for 1 h. […] Finally, 4′,6-diamidino-2-phenylindole (DAPI) was added to a final concentration of 100 ng/mL to exclude dead cells from the analysis. Cells were analyzed using a FACSCalibur instrument (BD Biosciences) and FlowJo analytical software (Tree Star, Ashland, Oreg.).
For orientation: A flow cytometer gives signals particle by particle.

The next assay deals with T4, Ig (human, UniProt Q01973).
T4 construct: Ig domain of the extracellular domain; also called hFc-hROR1-Ig
Put plainly: ELISA on directly coated hFc fusion proteins of hROR1 domains; anti-His-HRP; A405. The procedure:
as §2

A further assay has as its target T5, Fr.
T5 construct: also called hFc-hROR1-Fr
The description is as above. As to the method: as §2

Another assay has as its target T6, Kr (human, UniProt Q01973).
T6 construct: Kringle domain of the extracellular domain; also called hFc-hROR1-Kr
The assay is described as above. The procedure:
as §2

The target of the next assay is T7, Fr + Ki (human, UniProt Q01973).
T7 construct: Frizzled and Kringle domains of the extracellular domain; also called hFc-hROR1-Fr-Ki
The assay is described as above. The procedure: as §2

The target in assay [3] is T8, hFc-hROR1 (extracellular domain of human ROR1 fused to the Fc domain of human IgG1) (human, UniProt Q01973 30-406).
T8 construct: extracellular domain; also called hFc-ROR1; not shown: Fc domain of human IgG1
Put plainly: SPR (Biacore X100); hFc-hROR1 captured by anti-human Fcγ antibody on CM5; Fab as analyte; 1:1 Langmuir fit. The procedure: (A) Shown are Biacore X100 sensorgrams obtained for the binding of each Fab to hFc-hROR1 captured by anti-human Fcγ antibody immobilized on CM5 chip after instantaneous background depletion. Fabs were injected at five different concentrations with the highest concentration indicated in table (B), one of the five concentrations was tested in duplicates. The equilibrium dissociation constant (Kd) was calculated from koff/kₒₙ (kₒₙ, association rate constant; koff, dissociation rate constant).
Surface plasmon resonance: Surface plasmon resonance for the measurement of the affinities of all Fabs to hFc-hROR1 and for epitope mapping studies were performed on a Biacore X100 instrument using Biacore reagents and software (GE Healthcare, Piscataway, N.J.). Anti-Human IgG (Fc) antibody was immobilized on a CM5 sensor chip following the instruction of Human Antibody Capture Kit (GE Healthcare, Piscataway, N.J.). The sensor chip included an empty flow cell for instantaneous background depletion. All binding assays used 1×HBS-EP+ running buffer (10 mM HEPES, 150 mM NaCl, 3 mM EDTA (pH 7.4), and 0.05% (v/v) Surfactant P20) and a flow rate of […]. […] The sensor chip was regenerated with […] from the Human Antibody Capture Kit without any loss of binding capacity. Calculation of association (kₒₙ) and dissociation (koff) rate constants was based on a 1:1 Langmuir binding model. The equilibrium dissociation constant (Kd) was calculated from koff/kₒₙ. For epitope mapping studies, each Fab was prepared at 500 nM alone in 1×HBS-EP+ running buffer and then injected in order as indicated in FIG. 5.
On the technique in general: SPR reads the build-up and loss of mass on a sensor chip optically.

T1 sequence (Q01974 34-403): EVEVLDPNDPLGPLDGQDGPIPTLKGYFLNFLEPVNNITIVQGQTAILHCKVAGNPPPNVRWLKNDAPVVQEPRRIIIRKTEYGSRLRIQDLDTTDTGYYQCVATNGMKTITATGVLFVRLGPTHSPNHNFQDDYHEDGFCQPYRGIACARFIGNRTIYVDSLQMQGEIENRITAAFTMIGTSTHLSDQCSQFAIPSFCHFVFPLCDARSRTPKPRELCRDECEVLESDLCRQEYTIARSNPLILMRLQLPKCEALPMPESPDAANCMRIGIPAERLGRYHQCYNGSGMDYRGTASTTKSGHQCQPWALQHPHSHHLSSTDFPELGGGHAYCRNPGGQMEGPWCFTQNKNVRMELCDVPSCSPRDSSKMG
T3 sequence (Q01974 34-943 limits assumed): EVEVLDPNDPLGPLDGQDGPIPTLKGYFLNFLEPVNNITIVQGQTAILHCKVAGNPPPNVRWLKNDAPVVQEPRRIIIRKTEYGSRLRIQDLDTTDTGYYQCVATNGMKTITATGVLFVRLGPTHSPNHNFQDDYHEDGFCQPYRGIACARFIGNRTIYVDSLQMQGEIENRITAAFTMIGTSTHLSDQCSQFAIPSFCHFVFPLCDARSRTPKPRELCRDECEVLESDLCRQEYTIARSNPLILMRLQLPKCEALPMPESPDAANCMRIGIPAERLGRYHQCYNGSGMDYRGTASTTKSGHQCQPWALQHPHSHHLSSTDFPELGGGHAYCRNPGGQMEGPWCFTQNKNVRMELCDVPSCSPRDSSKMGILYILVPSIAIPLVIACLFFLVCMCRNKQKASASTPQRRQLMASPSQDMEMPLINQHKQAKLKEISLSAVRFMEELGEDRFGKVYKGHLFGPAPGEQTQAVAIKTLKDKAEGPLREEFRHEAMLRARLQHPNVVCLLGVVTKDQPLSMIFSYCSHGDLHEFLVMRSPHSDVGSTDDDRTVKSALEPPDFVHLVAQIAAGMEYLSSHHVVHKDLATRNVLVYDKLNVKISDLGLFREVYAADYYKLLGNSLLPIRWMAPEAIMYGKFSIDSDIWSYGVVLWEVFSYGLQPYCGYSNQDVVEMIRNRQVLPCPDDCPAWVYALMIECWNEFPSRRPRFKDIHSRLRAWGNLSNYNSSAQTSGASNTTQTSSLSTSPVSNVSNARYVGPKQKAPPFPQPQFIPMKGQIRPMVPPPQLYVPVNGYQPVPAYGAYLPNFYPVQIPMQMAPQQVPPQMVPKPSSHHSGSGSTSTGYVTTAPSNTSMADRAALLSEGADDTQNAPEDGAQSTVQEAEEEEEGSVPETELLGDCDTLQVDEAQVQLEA
T6 sequence (Q01973 312-391 limits assumed): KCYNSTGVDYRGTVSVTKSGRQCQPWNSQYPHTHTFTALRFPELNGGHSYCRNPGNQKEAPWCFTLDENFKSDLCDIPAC
T7 sequence (Q01973 165-391 limits assumed): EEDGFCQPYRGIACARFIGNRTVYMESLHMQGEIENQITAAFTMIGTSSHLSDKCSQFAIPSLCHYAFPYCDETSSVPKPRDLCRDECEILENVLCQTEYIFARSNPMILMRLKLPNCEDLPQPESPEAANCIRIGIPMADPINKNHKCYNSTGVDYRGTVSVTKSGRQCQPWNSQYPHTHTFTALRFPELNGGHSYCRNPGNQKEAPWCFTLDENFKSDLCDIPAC
T4 sequence (Q01973 42-147 limits assumed): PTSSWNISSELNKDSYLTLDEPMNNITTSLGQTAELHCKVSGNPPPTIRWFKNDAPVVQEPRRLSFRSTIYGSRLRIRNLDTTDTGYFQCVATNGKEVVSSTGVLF
T2 sequence (Q9Z139 30-406): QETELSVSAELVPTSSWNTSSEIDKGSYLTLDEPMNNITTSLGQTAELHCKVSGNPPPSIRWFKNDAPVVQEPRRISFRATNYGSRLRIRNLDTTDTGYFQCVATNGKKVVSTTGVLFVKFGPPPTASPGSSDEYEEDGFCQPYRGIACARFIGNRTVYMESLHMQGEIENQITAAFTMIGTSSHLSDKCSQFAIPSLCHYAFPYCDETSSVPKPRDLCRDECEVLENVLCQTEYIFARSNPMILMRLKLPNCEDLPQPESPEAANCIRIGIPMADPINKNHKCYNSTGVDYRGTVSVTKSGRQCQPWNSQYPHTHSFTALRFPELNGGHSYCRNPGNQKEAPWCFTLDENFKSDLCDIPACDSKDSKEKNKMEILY
T8 sequence (Q01973 30-406): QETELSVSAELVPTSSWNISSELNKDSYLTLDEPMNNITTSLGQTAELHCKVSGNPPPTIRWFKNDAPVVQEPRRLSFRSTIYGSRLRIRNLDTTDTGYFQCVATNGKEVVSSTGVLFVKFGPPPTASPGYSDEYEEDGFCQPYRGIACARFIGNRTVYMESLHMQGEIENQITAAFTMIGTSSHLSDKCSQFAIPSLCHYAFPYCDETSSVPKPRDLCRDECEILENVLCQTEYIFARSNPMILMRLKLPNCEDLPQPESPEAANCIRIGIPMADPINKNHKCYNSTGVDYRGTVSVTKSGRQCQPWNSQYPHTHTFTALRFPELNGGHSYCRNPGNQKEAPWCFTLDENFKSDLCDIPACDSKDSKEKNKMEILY
T5 sequence (chain, as listed by the source limits assumed): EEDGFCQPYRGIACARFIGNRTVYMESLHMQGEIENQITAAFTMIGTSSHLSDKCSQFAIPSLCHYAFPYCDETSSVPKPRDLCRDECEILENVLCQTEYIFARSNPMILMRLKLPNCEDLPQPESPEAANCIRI

B1: ERR1-TOP43 chimeric rabbit/human Fab (Fab, V domains shown)
VH: QSLEESGGRLVTPGTPLTLTCTVSGFSLSSYWMSWVRQAPGKGLEWIGAIYGSGNTYYASWAKGRFTISKTSTTVDLKITSPTTEDTATYFCARDVHSTATDLWGPGTLVTISS
VL: SYELTQLPSVSVSLGQTARITCGGNNIGSKAVNWYQQKPGLAPGLLIYNDDERPSGVPDRFSGSNSGDTATLTISGAQAGDEADYYCQLWDSSAGAYVFGGGTQLTVTG
notes: Chimeric rabbit/human Fab with His tag, expressed in E. coli (pET11a); lambda light chain
A word on the Kd: it is a measure of binding affinity in units of concentration. In general, koff refers to the first-order rate constant of dissociation. Higher therefore signals fast dissociation. The kon is the rate constant with which the complex forms. High values mean fast association, low ones slow association. B1: the binding result in assay [1] is recorded as “no binding (tested: 100 ng/50 µL)”; in assay [2], “no binding (tested: 100 ng/50 µL)”; with hROR2, “no binding (tested: 1000 ng/100 µL)”; with Ig it was “no binding”; with Fr it was “no binding”; with Kr, “no binding”. Moreover, in the assay with Fr + Ki, the binding result is “no binding”. This molecule also displayed a Kd in assay [3] of 1.11 nM. The koff in assay [3] is 0.000501 s⁻¹. The molecule further gave a kon in assay [3] of 451000 M⁻¹ s⁻¹.

B2: ERR1-403 chimeric rabbit/human Fab (Fab, V domains shown)
VH: QEQLKESGRGLVQPGGSLKLSCKASGFDFSGWYMTWVRQAPGKGLEWIGTIGTTKGRTYYASWVNGRFTISSNAQNTVDLQMNSLTAADRATYFCVRGSDYFDLWGPGTLVTISS
VL: SYELTQLPSVSVSLGQTARITCGGNSIGSKAVNWYQQKPGLAPGLLIYDDDERPSGVPARFSGSNSGDTATLTISGAQAGDEADYYCQLWDSSAGAYVFGGGTQLTVTG
notes: as for B1
Regarding B2, the binding result in assay [1] is “no binding (tested: 100 ng/50 µL)”; in assay [2], “no binding (tested: 100 ng/50 µL)”; with hROR2, “no binding (tested: 1000 ng/100 µL)”; with Ig, “no binding”; with Fr, “no binding”; with Kr it was “no binding”. Besides, in the assay with Fr + Ki, the binding result is on record as “no binding”. The molecule further came in with a Kd in assay [3] of 41.6 nM. Moreover, the koff in assay [3] was found to be 0.00128 s⁻¹. This molecule also yielded a kon in assay [3] of 30800 M⁻¹ s⁻¹.

B3: ERR1-316 chimeric rabbit/human Fab (Fab, V domains shown)
VH: QEQLEESGGRLVTPGTPLTLTCTASGFFLSSYYVSWVRQAPGKGLEWIGAIGTGGSAYYASWAKSRSTITRNTNLSTVTLKMTSLTAADTATYFCARDHPNYGMDLWGPGTLVTVSS
VL: SYELTQLPSVSVSLGQTARITCGGNSIGSKAVNWYQQKPGLAPGLLIYDDDERPSGVPDRFSGSNSGDTATLTISGAQAGDEADYYCQLWDSSTGAYAFGGGTQLTVTG
notes: as for B1
In the case of B3, the binding result is on record as “no binding (tested: 100 ng/50 µL)” in assay [1]; “no binding (tested: 100 ng/50 µL)” in assay [2]; “no binding (tested: 1000 ng/100 µL)” with hROR2; “no binding” with Ig; “no binding” with Fr; “no binding” with Kr. In the assay with Fr + Ki, the binding result is on record as “no binding”. Further, the Kd in assay [3] worked out at 121 nM. The molecule further registered a koff in assay [3] of 0.133 s⁻¹. In assay [3], the kon is 1.1e+06 M⁻¹ s⁻¹.

B4: ERR1-301 chimeric rabbit/human Fab (Fab, V domains shown)
VH: QEQLEESGGGLVTPGGSLTLTCTASGFTISTYHMSWVRQAPGKGLEWIGSIYAGSGSTYYASWVNGRFTISSNTTQNTVSLQMNSLTVADTATYFCARDHPSYGMDLWGPGTLVTVSS
VL: SYELTQLPSVSVSLGQTARITCGGNSIGSKAVNWYQQKPGLAPGLLIYDDDERPSGVPDRFSASNSGDTATLTISGAQAEDEADYYCQLWDSSAVAYVFGGGTQLTVTG
notes: as for B1
For B4, the binding result in assay [1] is “no binding (tested: 100 ng/50 µL)”; in assay [2] it was “no binding (tested: 100 ng/50 µL)”; with hROR2 it was “no binding (tested: 1000 ng/100 µL)”; with Ig, “no binding”; with Fr, “no binding”; with Kr, “no binding”. The binding result with Fr + Ki is “no binding”. Moreover, in assay [3], the affinity, expressed as Kd, was 118 nM. Further, the off-rate (koff) in assay [3] is 0.1 s⁻¹. The molecule also came in with a kon in assay [3] of 849000 M⁻¹ s⁻¹.

B5: ERR1-409 chimeric rabbit/human Fab (Fab, V domains shown)
VH: QEQLVESGGRLVTPGGSLTLTCTASGFSLSSYYMGWVRQAPGKGLEWIGTIYGGSGSTWYASWVKGRFTISKTSTAVDLKITSLTTEDTATYFCARSYPGWTTEPYFDIWGPGTLVTVSS
VL: QFVLTQPQSVSGSLGQTVSISCNRDSGNIEDYYVHWYQQHPGKAPTTVIYNDDQRPSGVPDRFSGSIDSTSNSASLTITGLLAEDEADYYCLSSDSSAYVFGGGTQLTVTG
notes: as for B1
For B5, the binding result is on record as “no binding (tested: 100 ng/50 µL)” in assay [1]; “no binding (tested: 100 ng/50 µL)” in assay [2]; “no binding (tested: 1000 ng/100 µL)” with hROR2; “no binding” with Ig; “no binding” in the assay with Fr; “no binding” with Kr. In addition, the binding result with Fr + Ki is recorded as “no binding”. The molecule also showed a Kd in assay [3] of 281 nM. For the same molecule, the koff in assay [3] is 0.0162 s⁻¹. Besides, the kon in assay [3] stood at 57500 M⁻¹ s⁻¹.
